Measured values as given in doi:10.1101/2023.03.09.531943 (bioRxiv, 2023).

B2: recombinant CML13 (natural protein)
chain: MGKDGLSDDQVSSMKEAFMLFDTDGDGKIAPSELGILMRSLGGNPTQAQLKSIIASENLSSPFDFNRFLDLMAKHLKTEPFDRQLRDAFKVLDKEGTGFVAVADLRHILTSIGEKLEPNEFDEWIKEVDVGSDGKIRYEDFIARMVAK
B3: recombinant CML14 (natural protein)
chain: MSKDGLSNDQVSSMKEAFMLFDTDGDGKIAPSELGILMRSLGGNPTESQLKSIITTENLSSPFDFNRFLDLMAKHLKTEPFDRQLRDAFKVLDKEGTGFVAVADLRHILTSIGEKLQPSEFDEWIKEVDVGSDGKIRYEDFIARMVAK
B4: IQD14-IQ1+2 synthetic peptide, residues 322-367 (peptide)
peptide: not shown
modifications: N-terminal acetylation; C-terminal amidation

How the values were obtained:
biotinylated CML14 = molecular target: T1, biotinylated CML14 (Arabidopsis thaliana, UniProt Q8VZ50 1-148, biotin, covalently conjugated (biotin-NHS ester), sites not stated); assay: far-Western, overlay or dot blot
T1 sequence: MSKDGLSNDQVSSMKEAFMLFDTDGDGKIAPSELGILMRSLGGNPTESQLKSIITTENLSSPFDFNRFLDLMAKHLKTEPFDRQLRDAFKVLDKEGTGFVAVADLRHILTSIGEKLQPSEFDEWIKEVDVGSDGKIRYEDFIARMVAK

[1] = molecular target: biotinylated CaM (petunia CaM81) (petunia, UniProt P62199 1-149, biotin, covalently conjugated (biotin-NHS ester), sites not stated); assay: far-Western, overlay or dot blot
biotinylated CML13 = molecular target: T2, biotinylated CML13 (Arabidopsis thaliana, UniProt Q94AZ4 1-148, biotin, covalently conjugated (biotin-NHS ester), sites not stated); assay: far-Western, overlay or dot blot
T2 sequence: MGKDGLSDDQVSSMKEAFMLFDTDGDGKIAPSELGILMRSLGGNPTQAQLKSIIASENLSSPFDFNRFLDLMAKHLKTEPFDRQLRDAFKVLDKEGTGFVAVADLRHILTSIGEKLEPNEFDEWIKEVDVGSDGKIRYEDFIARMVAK

recombinant CML14 = molecular target: B3; assay: ITC
recombinant CML13 = molecular target: B2; assay: ITC
[2] = molecular target: recombinant CaM (petunia CaM81) (petunia, UniProt P62199 1-149); assay: ITC
[3] = molecular target: B4; assay: AUC

B1: recombinant IQD14 (residues 307-418), all three putative IQ domains (domain or fragment)
chain: RREIVYRPEPTLPVQHASATKIQGAFRGYMARKSFRALKGLVRLQGVVRGYSVKRQTINAMKYMQQVVRVQSQIQSRRIKMLENQAQVEKDEAKWAASEAGNDNWDDSVLTK
binding result (biotinylated CML14): binds
binding result [1]: binds
binding result (biotinylated CML13): binds

Ac-QHASATKIQGAFRGYMARKSFRALK-NH2 [IQD14-IQ1 synthetic peptide, residues 322-346]
Kd (recombinant CML14): 116 nM
Kd (recombinant CML13): 222 nM
Kd [2]: 7 nM

B2
stoichiometry N [3]: 1

B3
stoichiometry N [3]: 1

B4
binding result (recombinant CML14): binds
binding result (recombinant CML13): binds
binding result [2]: binds

Ac-ALKGLVRLQGVVRGYSVKRQTINA-NH2 [IQD14-IQ2 synthetic peptide, residues 344-367]
binding result [2]: binds
